Measured values: article PMC7264223, “Tetrameric architecture of an active phenol-bound form of the AAA^+ transcriptional regulator DmpR” (Nature Communications, 2020)
Several values for one entry are separate records, joined by “and”; a condition that tells them apart may be missing. Equal entries are not always repeated.

B1: DmpR^WT, full-length DmpR (di-methyl phenol regulator) bearing an N-terminal 6 × His tag (natural protein, Pseudomonas putida KCTC 1452, UniProt Q7WSM9 1-563, looked up)
chain: MPIKYKPEIQHSDFKDLTNLIHFQSTEGKIWLGEQRMLLLQVSAMASFRREMVNTLGIERAKGFFLRQGYQSGLKDAELARKLRPNASEYDMFLAGPQLHSLKGLVKVRPTEVDIDKECGRFYAEMEWIDSFEVEICQTDLGQMQDPVCWTLLGYACAYSSAFMGREIIFKEVSCRGCGGDKCRVIGKPAEEWDDVASFKQYFKNDPIIEELYELQSQLVSLRTNLDKQEGQYYGIGQTPAYQTVRNMMDKAAQGKVSVLLLGETGVGKEVIARSVHLRSKRAAEPFVAVNCAAIPPDLIESELFGVEKGAFTGATQSRMGRFERADKGTIFLDEVIELSPRAQASLLRVLQEGELERVGDNRTRKIDVRVIAATHEDLAEAVKAGRFRADLYYRLNVFPVAIPALRERREDIPLLVEHFLQRFHQEYGKRTLGLSDKALEACLHYSWPGNIRELENVIERGIILTDPNESISVQALFPRAPEEPQTASERVSSDGVLIQPGNGQGSWISQLLSSGLSLDEIEESLMREAMQQANQNVSGAARLLGLSRPALAYRLKKIGIEG
notes: DmpR (CapR) of Pseudomonas putida KCTC 1452, codons 1-563 (wild type), GenBank AAP46187.1; 66 kDa with tag; Mixture of dimers and tetramers without phenol, predominantly a tetramer with phenol; Vector pProEX HTa; also called CapR; wild type DmpR; source: E. coli BL21-CodonPlus (DE3)-RIL, purified (His-Trap HP, Superdex 200); not shown: His6, N-terminal, kept

Experiments:
DmpR [1] = biological target: DmpR (Pseudomonas putida, UniProt Q7WSM9, C119S/C137S); assay: ([…] Å) and isothermal titration calorimetry; format: binding
DmpR [2] = biological target: T1, DmpR (Pseudomonas putida, UniProt Q7WSM9); assay: activation of ATPase activity (radiolabelled ATP, TLC); phenol-induced tetramerization (BN-PAGE, SEC-MALS, single-molecule photobleaching); format: biochemical
T1 construct: DmpR^WT, full-length (1–563), N-terminal 6 × His tag
T1 sequence (Q7WSM9 1-563): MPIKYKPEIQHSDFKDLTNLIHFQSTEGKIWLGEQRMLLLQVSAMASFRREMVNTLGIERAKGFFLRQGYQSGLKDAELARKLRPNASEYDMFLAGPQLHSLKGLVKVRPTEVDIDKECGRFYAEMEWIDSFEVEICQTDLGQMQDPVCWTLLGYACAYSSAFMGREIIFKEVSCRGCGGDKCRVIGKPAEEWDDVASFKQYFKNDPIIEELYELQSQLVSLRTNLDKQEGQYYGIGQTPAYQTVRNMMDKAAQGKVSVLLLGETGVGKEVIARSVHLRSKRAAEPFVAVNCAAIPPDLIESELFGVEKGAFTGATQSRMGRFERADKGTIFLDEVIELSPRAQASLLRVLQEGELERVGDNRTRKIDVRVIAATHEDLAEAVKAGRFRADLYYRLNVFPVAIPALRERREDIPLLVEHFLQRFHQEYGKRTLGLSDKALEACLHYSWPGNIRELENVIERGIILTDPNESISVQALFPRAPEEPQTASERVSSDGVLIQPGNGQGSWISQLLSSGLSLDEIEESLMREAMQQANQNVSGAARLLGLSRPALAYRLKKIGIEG

[3] = biological target: DmpR^ΔD, truncated DmpR derivative (aa 18–481) with C119S/C137S (Pseudomonas putida KCTC 1452); assay: crystal structure; DmpR^ΔD crystallised with 10 mM phenol and 3 mM AMP-PNP, sitting drop, 4 °C; 3.4 Å
[4] = biological target: DmpR^ΔD, truncated DmpR derivative (aa 18–481) with C119S/C137S (Pseudomonas putida KCTC 1452); assay: not stated; DmpR^ΔD in the presence of phenol (Supplementary Fig. 2a, b)
[5] = biological target: DmpR^ΔS, truncated DmpR lacking only the sensory domain (residues 205–563) (Pseudomonas putida KCTC 1452); assay: SEC-MALS; SEC combined with MALS of DmpR^ΔS
[6] = biological target: DmpR^ΔS, truncated DmpR lacking only the sensory domain (residues 205–563) (Pseudomonas putida KCTC 1452); assay: native gel or EMSA; blue native PAGE of truncated DmpR proteins after incubation with ATP or ATPγS, without phenol
[7] = biological target: eGFP-DmpR^WT, fusion of eGFP and N-terminally 6 × His-tagged DmpR^WT (Pseudomonas putida KCTC 1452); assay: single-molecule photobleaching (TIRF); eGFP-DmpR^WT (100 pM) held by biotinylated anti-GFP antibody on streptavidin surface, PBS, with 3 mM phenol; addition of 1 mM ATP changed nothing
[8] = biological target: eGFP-DmpR^WT, fusion of eGFP and N-terminally 6 × His-tagged DmpR^WT (Pseudomonas putida KCTC 1452); assay: single-molecule fluorescence imaging (TIRF); biotinylated σ^54_((1–119))-CPD immobilised through biotin-streptavidin; eGFP-DmpR^WT added with phenol and ATPγS; bleaching steps of bound eGFP-DmpR counted
[9] = biological target: eGFP-DmpR^WT, fusion of eGFP and N-terminally 6 × His-tagged DmpR^WT (Pseudomonas putida KCTC 1452); assay: single-molecule fluorescence imaging (TIRF); eGFP-DmpR^WT (100 pM, with 1 mM MgCl2, 3 mM phenol, 1 mM ATPγS) held by biotinylated anti-GFP antibody; 1 nM Cy5-labelled σ^54_((1–119))-CPD added; 50 mM HEPES-NaOH pH 7.5, 300 mM NaCl, 5 mM MgCl2
[10] = biological target: eGFP-DmpR^WT, fusion of eGFP and N-terminally 6 × His-tagged DmpR^WT (Pseudomonas putida KCTC 1452); assay: single-molecule photobleaching (TIRF); eGFP-DmpR^WT (100 pM) held by biotinylated anti-GFP antibody on streptavidin surface, PBS, without phenol; steps of eGFP bleaching counted
[11] = biological target: the molecule itself; assay: native gel or EMSA; blue native PAGE (4–16% gradient gel), 20 µM DmpR, 20 min at 25 °C, without phenol
[12] = biological target: B1; assay: ITC; MicroCal Auto-iTC200, 25 °C; DmpR in the cell, σ^54_((1–119))-CPD (400 µM) as injectant; with phenol and ATPγS; conditions: both partners purified

For `Oc1ccccc1` [phenol], which Kd (DmpR [1]) is on record?
Its Kd is roughly 12 µM.

What about the “activation of ATPase activity (radiolabelled ATP, TLC); phenol-induced tetrameri” value (DmpR [2]) of the same molecule?
The value was “The DmpR^WT and DmpR^ΔD proteins exhibited ATP hydrolysis in the presence of phenol”.

How did the stoichiometry N [3] turn out when “DmpR^ΔD, truncated DmpR derivative (aa 18–481) with C119S/C137S (domain or fragment)” was run?
Its stoichiometry N is 4.

What about the stoichiometry N [4] of the same molecule?
The stoichiometry N was 4.

Which results are given for “DmpR^ΔS, truncated DmpR lacking only the sensory domain (residues 205–563) (domain or fragment)”?
stoichiometry N [5]: 4; stoichiometry N [6]: 4

For “eGFP-DmpR^WT, fusion of eGFP and N-terminally 6 × His-tagged DmpR^WT (natural protein)”, which percent of molecules with four-step photobleaching (tetramers) [7] is on record?
Its percent of molecules with four-step photobleaching (tetramers) is 34%.

And the percent of molecules with two-step photobleaching (dimers) [7]?
The percent of molecules with two-step photobleaching (dimers) was 17%.

What about the stoichiometry N [8] of the same molecule?
The stoichiometry N was 4.

And the stoichiometry N [9]?
The stoichiometry N was 4.

What about the percent of molecules with four-step photobleaching (tetramers) [10] of the same molecule?
Its percent of molecules with four-step photobleaching (tetramers) is 19%.

And the percent of molecules with three-step photobleaching (trimers) [10]?
The percent of molecules with three-step photobleaching (trimers) was 14%.

And the percent of molecules with two-step photobleaching (dimers) [10]?
The percent of molecules with two-step photobleaching (dimers) was 32%.

How did the “stoichiometry N” value [11] turn out when B1 was run?
The value was 2 and 4.

B2: σ^54_((1–119))-CPD, N-terminal residues of σ^54 (aa 1–119) fused to a C-terminal cysteine protease domain (CPD) (domain or fragment, UniProt P0A171 1-119, looked up)
chain: MKPSLVLKMGQQLTMTPQLQQAIRLLQLSTLDLQQEIQEALESNPMLERQEDGEDFDNSDPMADNAENKPAAEVQDNSFQESTVSADNLEDGEWSERIPNELPVDTAWEDIYQTSASSL
notes: also called N-terminal peptide of σ^54; σ^54 peptide; source: E. coli BL21-CodonPlus (DE3)-RIL, purified (His-Trap HP, Superdex 200); not shown: CPD (cysteine protease domain), C-terminal, kept
How did the Kd [12] turn out when B2 was run?
The Kd was roughly 4 µM.

And the “stoichiometry N” value [12]?
Its value is 0.86 ± 0.022.
